Assay results as given in PMC11446282.
Positions count from the first letter of the chain named.

B1: PME1 M8: PME1, M8 to alanine (protein, UniProt Q9Y570 2-386, looked up, variant M8A)
Protein phosphatase …: SALEKSAHLGRLPSRPPLPGSGGSQSGAKMRMGPGRKRDFSPVPWSQYFESMEDVEVENETGKDTFRVYKSGSEGPVLLLLHGGGHSALSWAVFTAAIISRVQCRIVALDLRSHGETKVKNPEDLSAETMAKDVGNVVEAMYGDLPPPIMLIGHSMGGAIAVHTASSNLVPSLLGLCMIDVVEGTAMDALNSMQNFLRGRPKTFKSLENAIEWSVKSGQIRNLESARVSMVGQVKQCEGITSPEGSKSIVEGIIEEEEEDEEGSESISKRKKEDDMETKKDHPYTWRIELAKTEKYWDGWFRGLSNLFLSCPIPKLLLLAGVDRLDKDLTIGQMQGKFQMQVLPQCGHAVHEDAPDKVAEAVATFLIRHRFAEPIGGFQCVFPGC
B2: PME1 L4: PME1, L4 to alanine (protein, UniProt Q9Y570 2-386, looked up, variant L4A)
Protein phosphatase …: B1 Protein phosphatase … with L3A, A7M
B3: PME1 K6: PME1, K6 to alanine (protein, UniProt Q9Y570 2-386, looked up, variant K6A)
Protein phosphatase …: B1 Protein phosphatase … with K5A, A7M
B4: PME1 L10: PME1, L10 to alanine (protein, UniProt Q9Y570 2-386, looked up, variant L10A)
Protein phosphatase …: B1 Protein phosphatase … with A7M, L9A
B5: PME1 H9: PME1, H9 to alanine (protein, UniProt Q9Y570 2-386, looked up, variant H9A)
Protein phosphatase …: B1 Protein phosphatase … with A7M, H8A
B6: PME1 S7: PME1, S7 to alanine (protein, UniProt Q9Y570 2-386, looked up, variant S7A)
Protein phosphatase …: B1 Protein phosphatase … with S6A, A7M
B7: PME1 R12: PME1, R12 to alanine (protein, UniProt Q9Y570 2-386, looked up, variant R12A)
Protein phosphatase …: B1 Protein phosphatase … with A7M, R11A
B8: PME1 E5: PME1, E5 to alanine (protein, UniProt Q9Y570 2-386, looked up, variant E5A)
Protein phosphatase …: B1 Protein phosphatase … with E4A, A7M
B9: PME1 G11: PME1, G11 to alanine (protein, UniProt Q9Y570 2-386, looked up, variant G11A)
Protein phosphatase …: B1 Protein phosphatase … with A7M, G10A
B10: IER2 S14: IER2, S14 to alanine (protein, UniProt Q9BTL4 1-223, looked up, variant S14A)
Immediate early response gene …: MEVQKEAQRIMTLAVWKMYHSRMQRGGLRLHRSLQLSLVMRSARELYLSAKVEALEPEVSLPAALPSDPRLHPPREAESTAETATPDGEHPFPEPMDTQEAPTAEETSACCAPRPAKVSRKRRSSSLSDGGDAGLVPSKKARLEEKEEEEGASSEVADRLQPPPAQAEGAFPNLARVLQRRFSGLLNCSPAAPPTAPPACEAKPACRPADSMLNVLVRAVVAF
B11: IER2 V15: IER2, V15 to alanine (protein, UniProt Q9BTL4 1-223, looked up, variant V15A)
Immediate early response gene …: B10 Immediate early response gene … with A14S, V15A
B12: IER2 K17: IER2, K17 to alanine (protein)
chain: B10 Immediate early response gene … with A14S, K17A
B13: IER2 W16: IER2, W16 to alanine (protein, UniProt Q9BTL4 1-223, looked up, variant W16A)
Immediate early response gene …: B10 Immediate early response gene … with A14S, W16A
B14: IER2 Q24: IER2, Q24 to alanine (protein, UniProt Q9BTL4 1-223, looked up, variant Q24A)
Immediate early response gene …: B10 Immediate early response gene … with A14S, Q24A
B15: IER2 M23: IER2, M23 to alanine (protein, UniProt Q9BTL4 1-223, looked up, variant M23A)
Immediate early response gene …: B10 Immediate early response gene … with A14S, M23A

Tested on: PP2A-B55α
Test: Single alanine mutational scan, YFP-tagged interactors immunoprecipitated from HeLa cells, Western blot
Assay type: binding, human
Method: Standard cloning techniques were used throughout. Point mutations were introduced by whole plasmid polymerase chain reaction (PCR). All constructs were fully sequenced. Synthetic DNA was purchased from GeneArt, Life Technologies and cloned into pcDNA5/FRT/TO (Invitrogen) expression vector containing YFP, resulting in the indicated YFP fusion proteins. These constructs were transiently transfected into HeLa cells 24 hours before harvesting cells. Cells were lysed in lysis buffer [50 mM tris-HCl (pH 7.5), 50 mM NaCl, 1 mM EDTA, 1 mM […], and 0.1% NP-40]. Complexes were immunoprecipitated at 4°C in lysis buffer with green fluorescent protein (GFP)–Trap (ChromoTek) and washed in lysis buffer. Precipitated protein complexes were washed three times in lysis buffer, eluted in 2× SDS sample buffer, and subjected to Western blotting or MS as indicated.

[1] = single alanine mutant of YFP-tagged PME1
[2] = single alanine mutant of YFP-tagged IER2

Molecule | Experimental % binding [1] | Experimental % binding [2]
B1 | 2% | 
B2 | 1% | 
B3 | 2% | 
B4 | 52% | 
B5 | 88% | 
B6 | 220% | 
B7 | 10% | 
B8 | 108% | 
B9 | 108% | 
B10 |  | 83%
B11 |  | 91%
B12 |  | 10%
B13 |  | 100%
B14 |  | 118%
B15 |  | 94%
